Results as given in patent US20260184758A1 (CUE BIOPHARMA, published 2026).

B1: biotinylated NKG2A/CD94 heterodimer (receptor)
chain 1: not shown
chain 2: KNSFTKLSIEPAFTPGPNIELQKDSDCCSCQEKWVGYRCNCYFISSEQKTWNESRHLCASQKSSLLQLQNTDELDFMSSSQQFYWIGLSYSEEHTAWLWENGSALSQYLFPSFETFNTKNCIAYNPNGNALDESCEDKNRYICKQQLI
notes: Biotinylated heterodimer immobilized on streptavidin-coated biosensors; also called CD94/NKG2A receptor; NKG2A/CD94 complex
B2: biotinylated NKG2C/CD94 heterodimer (receptor)
chain 1: not shown
chain 2: B1 chain 2
notes: Biotinylated heterodimer immobilized on streptavidin-coated biosensors; also called CD94/NKG2C receptor

Legend:
[1] = molecular target: T1, construct 4276 (single-chain TMP: NKG2 peptide …, β2M polypeptide, HLA-E heavy chain polypeptide, Ig Fc …); test: BLI (Octet HTX), biotinylated receptor on streptavidin biosensor, bivalent TMP as analyte, kinetic analysis
Source text: (§1) Streptavidin-coated biosensors were used to immobilize biotinylated NKG2A/CD94 heterodimers, or biotinylated NKG2C/CD94 heterodimers.

[2] = molecular target: T1, construct 4276 (single-chain TMP: NKG2 …); test: BLI (Octet HTX), biotinylated receptor on streptavidin biosensor, bivalent TMP as analyte, steady state Kd (avidity)
Source text: as §1

| Binder | koff [1] [s⁻¹] | Kd [2] [nM] |
| --- | --- | --- |
| B1 | 0.04 | 57 |
| B2 | 0.053 | 55 |
